Measured values from patent US20160115235A1 (ARES TRADING S A, published 2016).

T1: human CXCR5 (human, UniProt P32302 1-372)
T1 sequence: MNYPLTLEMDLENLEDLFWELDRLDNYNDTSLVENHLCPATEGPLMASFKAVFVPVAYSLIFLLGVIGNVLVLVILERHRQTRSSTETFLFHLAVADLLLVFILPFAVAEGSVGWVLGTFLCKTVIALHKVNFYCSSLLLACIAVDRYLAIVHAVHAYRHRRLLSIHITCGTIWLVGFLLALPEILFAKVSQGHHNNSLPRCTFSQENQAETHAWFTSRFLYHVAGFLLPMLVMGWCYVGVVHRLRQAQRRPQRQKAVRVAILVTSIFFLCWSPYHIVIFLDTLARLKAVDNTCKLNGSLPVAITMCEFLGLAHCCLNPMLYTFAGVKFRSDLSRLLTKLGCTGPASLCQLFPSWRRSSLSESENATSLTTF

T2: rat CXCR5 (rat, UniProt P34997 1-374)
T2 construct: whole, on cells
T2 sequence (looked up): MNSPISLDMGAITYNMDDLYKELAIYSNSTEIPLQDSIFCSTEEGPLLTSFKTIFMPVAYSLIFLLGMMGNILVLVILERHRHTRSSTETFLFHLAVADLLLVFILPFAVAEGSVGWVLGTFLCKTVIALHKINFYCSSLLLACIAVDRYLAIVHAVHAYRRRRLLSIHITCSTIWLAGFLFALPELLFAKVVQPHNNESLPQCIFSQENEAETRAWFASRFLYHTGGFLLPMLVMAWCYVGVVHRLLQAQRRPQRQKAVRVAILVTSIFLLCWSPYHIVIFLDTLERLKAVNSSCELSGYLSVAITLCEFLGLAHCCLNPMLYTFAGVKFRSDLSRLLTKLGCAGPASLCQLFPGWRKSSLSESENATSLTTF

T3: mouse CXCR5 (mouse, UniProt Q04683 1-374)
T3 construct: whole, on cells
T3 sequence (looked up): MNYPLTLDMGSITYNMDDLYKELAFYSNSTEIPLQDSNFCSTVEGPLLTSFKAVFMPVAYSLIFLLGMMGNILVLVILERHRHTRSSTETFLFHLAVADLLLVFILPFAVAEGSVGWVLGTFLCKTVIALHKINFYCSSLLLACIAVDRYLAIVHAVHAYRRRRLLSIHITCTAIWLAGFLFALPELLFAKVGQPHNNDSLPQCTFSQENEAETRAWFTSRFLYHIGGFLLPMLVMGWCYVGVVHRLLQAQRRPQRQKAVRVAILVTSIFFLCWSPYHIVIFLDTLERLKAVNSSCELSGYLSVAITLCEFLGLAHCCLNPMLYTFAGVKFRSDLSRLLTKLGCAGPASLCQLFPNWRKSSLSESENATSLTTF

T4: cynomolgus monkey (Macaca fascicularis) CXCR5 (cynomolgus monkey (Macaca fascicularis), UniProt P32302 1-372 (human entry))
T4 construct: Full length, on stably transfected cells (CHO, L1.2) or native on cynomolgus B cells in whole blood; also called cCXCR5
T4 chain: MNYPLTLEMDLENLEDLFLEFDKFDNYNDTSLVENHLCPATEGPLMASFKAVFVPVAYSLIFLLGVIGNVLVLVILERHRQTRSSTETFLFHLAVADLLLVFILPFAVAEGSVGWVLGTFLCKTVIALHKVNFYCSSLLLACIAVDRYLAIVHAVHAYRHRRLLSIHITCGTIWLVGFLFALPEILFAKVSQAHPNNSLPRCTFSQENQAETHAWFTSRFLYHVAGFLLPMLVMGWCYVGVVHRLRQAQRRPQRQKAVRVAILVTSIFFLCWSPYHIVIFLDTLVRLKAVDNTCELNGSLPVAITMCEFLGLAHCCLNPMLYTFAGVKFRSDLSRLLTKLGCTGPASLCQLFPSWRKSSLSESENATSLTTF


Legend:
human CXCR5 [1] = target: T1, human CXCR5; test: cell-based or functional assay
rat CXCR5 = target: T2, rat CXCR5; test: FACS on cells expressing species orthologues
Protocol: (§1) Binding of anti-CXCR5 antibodies to cell lines and primary cells expressing human CXCR5 or species orthologues was assessed by FACS. Briefly, approximately 1×10⁵ CXCR5 expressing cells were suspended in FACS buffer (PBS containing 1% FBS and 0.02% sodium azide) containing increasing concentrations of anti-CXCR5 antibodies ranging from 0-100 μg/ml, and incubated for 20 min at 4° C. Cells were washed and then resuspended in FACS buffer containing PE-labelled goat anti-human IgG (Jackson labs) for 20 min at 4° C. Cells were then washed 3 times and resuspended in 100 μl FACS buffer and analysed on a FACScalibur instrument (BD Sciences). MFI was plotted against antibody concentration and Graph pad prism software was used to calculate EC₅₀ values.

mouse CXCR5 = target: T3, mouse CXCR5; test: FACS on cells expressing species orthologues
Protocol: as §1

human CXCR5 [2] = target: T1, human CXCR5; test: cell-based or functional assay; remark: listed apart in the source
human CXCR5 [3] = target: T1, human CXCR5; test: cell-based or functional assay; remark: listed apart in the source
[4] = target: T4, cynomolgus monkey (Macaca fascicularis) …; test: FACS on CXCR5 expressing cells
Protocol: as §1

Row | Binder | Mean IC50 (nM) on L1.2/human CXCR5 cells (chemotaxis) (human CXCR5 [1]) | binding result (rat CXCR5) | binding result (mouse CXCR5) | IC50, inhibition of CXCL13-induced L1.2-CXCR5 chemotaxis (human CXCR5 [2]) | efficacy of inhibition of CXCL13-stimulated L1.2-CXCR5 chemotaxis (human CXCR5 [3]) | binding result [4] | IC50, inhibition of human CXCR5-L1.2 cell chemotaxis (human CXCR5 [3])
1 | mAb 80A11 (antibody, V domains shown) VH: EVQLLESGGGLVQPGGSLRLSCAASGFTFSRYPMGWVRQAPGKGLEWVSSISPSGGMTRYADSVKGRFTISRDNSKNTLYLQMNSLRAEDTAVYYCARLKFTSGRTFDIWGQGTMVTVSS VL: DIQMTQSPATLSLSPGERATLSCRASQSVSSYLAWYQQKPGQAPRLLIYGASSRVPGVPDRFTGSGSETDFTLTITRLEPEDFAVYYCQLSSSSPSWTFGQGTRLEIK | 1.85 nM | no binding | no binding | – | – | – | –
2 | mAb 80B09 (antibody, V domains shown) VH: EVQLLESGGGLVQPGGSLRLSCAASGFTFSKYNMLWVRQAPGKGLEWVSVISPSGGRTSYADSVKGRFTISRDNSKNTLYLQMNSLRAEDTAVYYCARHTSITMFDYWGQGTLVTVSS VL: QSALTQPASVSGSPGQSITISCTGTSSDIGSYNYVSWYQQHPGRAPKVMIYDVTYRPSGVSNRFSGSKSGNTASLTISGLQAEDEADYYCGSYRKSSLYVFGTGTKVTVL | 251 nM | no binding | no binding | – | – | – | –
3 | anti-CXCR5 40C01-VH1-Vk3 as IgG4 (antibody) heavy: not shown light: DIQMTQSPSSLSASVGDRVTITCRASQGVDAYVAWYQQKPGKVPKLLIYSTSTLASGVPSRFSGSGSGTDFTLTISSLQPEDVATYYCQSHNAAVVTFGQGTRLEIKRTVAAPSVFIFPPSDEQLKSGTASVVCLLNNFYPREAKVQWKVDNALQSGNSQESVTEQDSKDSTYSLSSTLTLSKADYEKHKVYACEVTHQGLSSPVTKSFNRGEC | – | – | – | 2.1 nM | 100% | – | –
4 | anti-CXCR5 40C01-VH2-Vk3 as IgG4 (antibody) heavy: not shown light: DIQMTQSPSSLSASVGDRVTITCRASQGVDAYVAWYQQKPGKVPKLLIYSTSTLASGVPSRFSGSGSGTDFTLTISSLQPEDVATYYCQSHNAAVVTFGQGTRLEIKRTVAAPSVFIFPPSDEQLKSGTASVVCLLNNFYPREAKVQWKVDNALQSGNSQESVTEQDSKDSTYSLSSTLTLSKADYEKHKVYACEVTHQGLSSPVTKSFNRGEC | – | – | – | 0.103 nM | 100% | – | –
5 | mAb 80A10 (antibody, V domains shown) VH: EVQLLESGGGLVQPGGSLRLSCAASGFTFSMYVMKWVRQAPGKGLEWVSGIRSSGGDTSYADSVKGRFTISRDNSKNTLYLQMNSLRAEDTAVYYCARQSRYCNGGSCYSRAFDIWGQGTMVTVSS VL: QPPSASGTPGQRVTISCFGSNSNIGSTYAYWYQQVPGTAPKLLIYRNNQRPSGVPDRFSGSKSGTSASLAISGLRSEDEADYYCAAWDVNLSGHWVFGGGTKLTVLG | 4.7 nM | no binding | no binding | – | – | – | –
6 | mAb 42F03 (antibody, human IgG1, V domains shown) VH: EVQLLESGGGLVQPGGSLRLSCAASGFTFSWYPMTWVRQAPGKGLEWVSYIRSSGGFTKYADSVKGRFTISRDNSKNTLYLQMNSLRAEDTAVYYCARGLYRWGQGTLVTVSS VL: IQMTQSPGTLSLSPGERATLSCRASQSVSNNYLAWYQQKPGQAPRLLISGASRRATDIADRFSGSGSGTDFTLTISRLEPEDFAVYYCQQYDSFPLTFGGGTKVEIK | 1.86 nM | no binding | no binding | – | – | – | –
7 | mAb 12A01 (antibody, V domains shown) VH: EVQLLESGGGLVQPGGSLRLSCAASGFTFSRYVMVWVRQAPGKGLDWVSGISPSGGVTRYADSVKGRFTISRDNSKNTLYLQMNSLRAEDTAMYYCARIRKEMTTISYFFDYWGQGTLVTVSS VL: DIQMTQSPDSLSASVGDRVTITCRASQGVDIYVAWYQQKPGKVPKLLMHSASTLASGVPSRFSGRGSGTDFTLTINSLQAEDVATYYCQSHNSAVVTFGQGTRLEIK | 2200 nM | no binding | no binding | – | – | binds | –
8 | mAb 40C01 (antibody, V domains shown, also called 40C01 VH-VL; 40C01 parental molecule) VH: EVQLLESGGGLVQPGGSLRLSCAASGFTFSRYVMVWVRQAPGKGLDWVSGISPSGGVTRYADSVKGRFTISRDNSKNTLYLQMNSLRAEDTAMYYCARIRKEMTTISYFFDYWGQGTLVTVSS VL: DIQMTRAPDSLSASVGDRVTITCRASQGVDIYVAWYQQKPGKAPKLLMHSASTLASGVPSRFSGRGSGTDFTLTINSLQAEDVATYYCQSHNSAVVTFGQGTRLEIK | 5.6 nM | no binding | no binding | – | – | binds | –

Other lines, results leading:

Row | Mean IC50 (nM) on L1.2/human CXCR5 cells (chemotaxis) (human CXCR5 [1]) | binding result (rat CXCR5) | binding result (mouse CXCR5) | IC50, inhibition of CXCL13-induced L1.2-CXCR5 chemotaxis (human CXCR5 [2]) | efficacy of inhibition of CXCL13-stimulated L1.2-CXCR5 chemotaxis (human CXCR5 [3]) | binding result [4] | IC50, inhibition of human CXCR5-L1.2 cell chemotaxis (human CXCR5 [3]) | Binder
9 | – | – | – | – | – | – | 20.9 nM | recombinant Fab fragment of 40C01-VH2-Vk3 (Fab, V domains shown) VH: EVQLLESGGGLVQPGGSLRLSCAASGFTFSRSVMVWVRQAPGKGLEWVSGISPSGGVTRYAASVKGRFTISRDNSKNTLYLQMNSLRAEDTAVYYCARIRKEKTTISYFFDYWGQGTLVTVSS VL: DIQMTQSPSSLSASVGDRVTITCRASQGVDAYVAWYQQKPGKVPKLLIYSTSTLASGVPSRFSGSGSGTDFTLTISSLQPEDVATYYCQSHNAAVVTFGQGTRLEIK
10 | – | – | – | – | – | – | 288 nM | recombinant Fab fragment of 40C01-VH1-Vk3 (Fab, V domains shown) VH: EVQLLESGGGLVQPGGSLRLSCAASGFTFSRYVMVWVRQAPGKGLEWVSGISPSGGVTRYAASVKGRFTISRDNSKNTLYLQMNSLRAEDTAVYYCARIRKEMTTISYFFDYWGQGTLVTVSS VL: DIQMTQSPSSLSASVGDRVTITCRASQGVDAYVAWYQQKPGKVPKLLIYSTSTLASGVPSRFSGSGSGTDFTLTISSLQPEDVATYYCQSHNAAVVTFGQGTRLEIK
11 | 37 nM | no binding | no binding | – | – | binds | – | mAb 80D11 (antibody, V domains shown) VH: EVQLLESGGGLVQPGGSLRLSCAASGFTFSHYWMQWVRQAPGKGLEWVSSISSSGGKTRYADSVKGRFTISRDNSKNTLYLQMNSLRAEDTAVYYCATAGYSSGWGQGTLVTVSS VL: QSALTQPASVSGSPGQSITISCTGTSSDVGGYNYLSWYQQHPGKAPKLMIYGVSNRPSGVSTRFSGSKSGNTASLTISGLQAEDEADYYCSSYTSTGTRVFGGGTRLTVL
